Assay results as given in patent publication US6040149A, “Assay for identifying agents which act on the ceramide-activated protein kinase, kinase suppressor of ras, and methods of using said agents” (priority 1997, dated 2000).
Like-named read-outs stand apart in the source and are kept apart here.

Legend:
[1] = test system: Raf-1; experiment: Kinase activity of immunoprecipitated Raf-1 toward MEK1 after HL-60 cell stimulation; format: cell-based, human (HL-60 cells)
Experimental: Recovery of MEK1 was monitored by western blot (Bottom Panel). Identical results were obtained with cells stimulated for 5 min with TNF.
Recovery of MEK1 was monitored by western blot (Bottom Panel).
These studies indicate that Raf-1 is a component of the sphingomyelin pathway mediating TNF action.
MEK1 autophosphorylation was for 45 min. An autoradiogram of MEK1 phosphorylation (top panel) and recovery of MEK1 protein by western blot (bottom panel) are shown. For western blot, proteins separated by SDS-PAGE were electrotransferred to an Immobilon PVDF membrane at 12 volts overnight at 4° C. Membranes were then blocked with 2% BSA in TBS [20 mM Tris, pH 7.6, 137 mM NaCl] for 1 hr and washed with TBST (TBS containing 0.2% Tween-20).

[2] = molecular target: T1, KSR (Mus musculus, UniProt Q61097); experiment: KSR activity toward Raf-1 peptides in vitro; format: biochemical, mouse (KSR immunoprecipitated from COS-7 cells); design: Raf-1 peptides as substrate
T1 sequence (Q61097 1-873): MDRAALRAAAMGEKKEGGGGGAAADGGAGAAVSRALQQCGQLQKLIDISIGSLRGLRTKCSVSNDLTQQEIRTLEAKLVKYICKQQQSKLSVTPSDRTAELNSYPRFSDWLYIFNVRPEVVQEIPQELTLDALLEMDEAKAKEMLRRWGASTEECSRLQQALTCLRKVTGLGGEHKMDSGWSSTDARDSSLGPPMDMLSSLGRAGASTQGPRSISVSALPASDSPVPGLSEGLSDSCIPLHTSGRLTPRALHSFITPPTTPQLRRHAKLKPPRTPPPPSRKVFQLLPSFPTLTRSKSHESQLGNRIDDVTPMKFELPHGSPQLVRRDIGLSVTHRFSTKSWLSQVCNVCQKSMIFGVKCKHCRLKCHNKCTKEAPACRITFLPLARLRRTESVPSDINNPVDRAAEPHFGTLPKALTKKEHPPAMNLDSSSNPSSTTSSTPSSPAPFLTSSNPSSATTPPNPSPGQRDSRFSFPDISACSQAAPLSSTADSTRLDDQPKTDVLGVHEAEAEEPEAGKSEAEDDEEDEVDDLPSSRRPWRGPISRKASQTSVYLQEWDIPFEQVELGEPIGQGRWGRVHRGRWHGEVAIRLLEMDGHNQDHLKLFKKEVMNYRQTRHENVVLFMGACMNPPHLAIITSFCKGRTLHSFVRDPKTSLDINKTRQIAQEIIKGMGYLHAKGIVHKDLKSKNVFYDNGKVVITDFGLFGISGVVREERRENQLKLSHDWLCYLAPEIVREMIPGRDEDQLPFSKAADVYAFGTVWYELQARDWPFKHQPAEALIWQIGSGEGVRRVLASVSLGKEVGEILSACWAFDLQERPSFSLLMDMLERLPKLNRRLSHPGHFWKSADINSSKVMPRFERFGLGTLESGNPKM
Procedure, shortened: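 Flag-tagged KSR immunoprecipitated from COS-7 lysate, incubated with 0.3 mM Raf-1 TTLP peptide, 10 mM MnCl2, 5 μM ATP plus [γ-32P]ATP at 22 °C, with 30 nM ceramide or other lipids; P81 filter binding and Cerenkov counting, AALP-peptide background subtracted.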

[3] = test system: ceramide-activated protein kinase; conditions: for membrane-bound kinase activity, fold increase: TNF-α 30 nM

Molecule: CCCCCCCCCCCCCC(=O)O[C@@H]1[C@@H](C)[C@@]2(O)[C@@H](C=C(CO)C[C@]3(O)C(=O)C(C)=C[C@@H]23)[C@@H]2C(C)(C)[C@]12OC(C)=O [TPA, 12-0-tetradecanoylphorbol-13-acetate]
- increase of Raf-1 activity ([1]; TPA 100 ng/ml, 10 min, maximum): 4 fold of control
- effect on activation of KSR towards Raf-peptide ([2]; 30 nM): no effect

Molecule: CCCCCCCCCCCCC/C=C/[C@@H](O)[C@@H](N)CO [sphingosine]
- effect on kinase activity in membranes of stimulated HL-60 cells ([3]; cholera toxin 10 nM, retinoic acid 0.5 μM, butyrate 0.5 mM): similarly as effective as C8-cer
- activation of KSR [2]: fail to activate KSR

Molecule: TNF-α
- kinase activity, fold of control ([3]; 3 pM TNF-α, 60 minutes): 1.1 fold of control
- maximal kinase activity, fold of control ([3]; 30 nM TNF-α, 60 minutes): 1.8 fold of control
- ED50 for kinase activity ([3]; 60 minutes of stimulation): ≈ 200 pM
- membrane-bound kinase activity, fold increase ([3]; 5 minutes): 1.5 fold
- membrane-bound kinase activity, fold increase ([3]; 2 hours): 2.2 fold
- membrane-bound kinase activity, fold increase ([3]; 2 hours, listed as TNF): 2 fold
- kinase activity of Raf-1 toward MEK1 ([1]; HL-60 cells treated with TNF or ceramide analogs): 10-20 fold
